Test results reported in PMC4191409, “AP endonucleases process 5-methylcytosine excision intermediates during active DNA demethylation in Arabidopsis”.

Tests used:
MBP-APE1L = molecular target: T1, MBP-APE1L (Arabidopsis thaliana (Col-0), UniProt Q5XF07 1-364); assay: EMSA; no Mg2+ listed; 100 and 300 nM protein, 50 nM DNA; EMSA: 10 mM Tris-HCl pH 8.0, 150 mM NaCl, 0.05% Triton X-100, 0.1 mg/mL BSA, 10% glycerol, 10 mM DTT; on ice 10 min; 8% native gel; conditions: protein: recombinant; tags: N-terminal MBP (HRV 3C site); HisTrap purified; label: 32P (5' end of strand 1); blunt
T1 sequence: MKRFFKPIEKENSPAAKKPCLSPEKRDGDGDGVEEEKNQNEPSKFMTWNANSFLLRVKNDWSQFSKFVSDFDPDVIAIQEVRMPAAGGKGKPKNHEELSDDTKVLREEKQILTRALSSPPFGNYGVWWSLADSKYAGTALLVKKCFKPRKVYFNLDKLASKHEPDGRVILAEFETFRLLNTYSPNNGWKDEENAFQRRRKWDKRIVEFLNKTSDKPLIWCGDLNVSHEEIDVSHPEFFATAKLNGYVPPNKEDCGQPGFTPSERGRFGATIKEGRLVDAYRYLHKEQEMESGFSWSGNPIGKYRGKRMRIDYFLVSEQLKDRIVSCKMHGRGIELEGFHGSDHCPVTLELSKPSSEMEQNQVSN

MBP-ARP = molecular target: T2, MBP-ARP (Arabidopsis thaliana (Col-0), UniProt P45951 1-536); assay: as above; conditions: protein: recombinant; tags: N-terminal MBP (HRV 3C site); HisTrap purified; label: 32P (5' end of strand 1); blunt
T2 sequence: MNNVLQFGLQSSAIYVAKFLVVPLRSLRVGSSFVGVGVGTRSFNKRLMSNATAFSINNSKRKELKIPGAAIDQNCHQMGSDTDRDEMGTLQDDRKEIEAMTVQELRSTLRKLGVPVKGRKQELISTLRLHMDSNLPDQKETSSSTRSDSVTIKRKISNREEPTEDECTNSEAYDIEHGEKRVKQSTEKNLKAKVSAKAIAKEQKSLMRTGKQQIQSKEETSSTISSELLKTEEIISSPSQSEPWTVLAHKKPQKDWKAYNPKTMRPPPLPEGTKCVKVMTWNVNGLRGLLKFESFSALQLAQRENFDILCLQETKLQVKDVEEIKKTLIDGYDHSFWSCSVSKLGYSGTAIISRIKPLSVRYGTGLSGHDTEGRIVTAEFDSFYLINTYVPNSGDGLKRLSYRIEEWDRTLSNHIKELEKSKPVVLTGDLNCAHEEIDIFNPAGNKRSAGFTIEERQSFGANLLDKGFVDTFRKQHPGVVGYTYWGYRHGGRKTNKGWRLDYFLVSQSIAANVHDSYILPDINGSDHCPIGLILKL

B1: F35[5mC]/R35 (5mC 35-mer) (dsDNA)
DNA 1: GTACTGTGTGATACTATCGAATTCAGTATGATCTG
DNA 2: CAGATCATACTGAATTCGATAGTATCACACAGTAC
modifications: 5-methylcytosine at position 18 of strand 1
B1: binds (MBP-APE1L); binds (MBP-ARP).
